Measurements: patent US20230118307A1, “THERAPEUTIC USE OF LONG-ACTING CONJUGATE OF TRIPLE AGONIST HAVING ACTIVITIES TO ALL OF GLUCAGON/GLP-1/GIP RECEPTORS FOR LUNG DISEASE” (HANMI PHARM. CO., LTD., priority 2020, published 2023)
Positions of bridges follow the written chain, without caps; N, C: chain ends. Non-standard residues stand in square brackets, D forms with d. No end group written: not given here. *: point of attachment. Acetyl(2-(4-imidazolyl)) = O=C(Cc1c[nH]cn1)*; Aib = CC(C)(N)C(=O)O

T1: human GIP receptor (human, UniProt P48546 22-466)
T1 sequence (looked up): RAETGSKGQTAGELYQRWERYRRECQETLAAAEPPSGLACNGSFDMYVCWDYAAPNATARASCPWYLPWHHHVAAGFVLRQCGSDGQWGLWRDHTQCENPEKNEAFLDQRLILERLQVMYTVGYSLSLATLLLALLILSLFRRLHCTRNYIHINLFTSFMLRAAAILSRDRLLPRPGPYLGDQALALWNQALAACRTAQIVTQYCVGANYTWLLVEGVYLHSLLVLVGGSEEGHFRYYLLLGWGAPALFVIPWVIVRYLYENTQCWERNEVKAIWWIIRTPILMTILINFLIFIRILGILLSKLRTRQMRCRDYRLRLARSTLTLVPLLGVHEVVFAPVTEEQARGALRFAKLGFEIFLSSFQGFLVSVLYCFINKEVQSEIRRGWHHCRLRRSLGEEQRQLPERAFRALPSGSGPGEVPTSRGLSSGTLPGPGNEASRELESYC


Experiments:
[1] = system: IPF mice (C57BL/6 mice treated with BLM); assay: Lung fibrosis in bleomycin (BLM) mice, Masson's trichrome staining; format: in vivo; conditions: BLM 1.5 U/head; 2 weeks; conjugate 3.9 nmol/kg Q2D subcutaneous; pirfenidone 300 mg/kg QD oral; ambroxol 45 mg/kg BID peritoneal; FIG. 5
Protocol: In order to confirm the in vivo efficacy of the long-acting conjugate of the triple agonist prepared in the above Examples for improving pulmonary fibrosis, particularly idiopathic pulmonary fibrosis (IPF), which is a representative pulmonary fibrosis, bleomycin (BLM) mice were used. It is known that, when bleomycin is administered intratracheally, the epithelial-mesenchymal transition occurs by damaging DNA of alveolar epithelial cells, which induces idiopathic fibrosis. In addition, it is known that when the BLM treatment dose is increased above a certain level, the survival rate of the mice is reduced due to severe lung damage caused by idiopathic fibrosis. […]
IPF mice prepared by treating C57BL/6 mice (ORIENT Bio, Busan, Korea) with BLM at 1.5 U/head were divided into an excipient control group, a long-acting conjugate of triple agonist administration group (3.9 nmol/kg, Q2D, subcutaneous), a pirfenidone administration group (300 mg/kg, QD, oral), and an ambroxol administration group (45 mg/kg, BID, peritoneal), repeated administration was performed for 2 weeks. After 2 weeks of repeated administration, lung tissue of each mouse was taken by autopsy, and the degree of fibrosis in the lung tissue was evaluated by Masson's trichrome staining. Statistical treatment evaluated the efficacy of the long-acting conjugate of the triple agonist using one-way ANOVA (*-***p<0.05-0.001).

human GLP-1 receptor = human GLP-1 receptor (human, UniProt P43220 24-463); assay: cell-based or functional assay
human GCG receptor = human GCG receptor (human, UniProt P47871 26-477); assay: cell-based or functional assay
human GIP receptor = biological target: T1, human GIP receptor; assay: cell-based or functional assay

human GCG receptor, sequence (P47871 26-477): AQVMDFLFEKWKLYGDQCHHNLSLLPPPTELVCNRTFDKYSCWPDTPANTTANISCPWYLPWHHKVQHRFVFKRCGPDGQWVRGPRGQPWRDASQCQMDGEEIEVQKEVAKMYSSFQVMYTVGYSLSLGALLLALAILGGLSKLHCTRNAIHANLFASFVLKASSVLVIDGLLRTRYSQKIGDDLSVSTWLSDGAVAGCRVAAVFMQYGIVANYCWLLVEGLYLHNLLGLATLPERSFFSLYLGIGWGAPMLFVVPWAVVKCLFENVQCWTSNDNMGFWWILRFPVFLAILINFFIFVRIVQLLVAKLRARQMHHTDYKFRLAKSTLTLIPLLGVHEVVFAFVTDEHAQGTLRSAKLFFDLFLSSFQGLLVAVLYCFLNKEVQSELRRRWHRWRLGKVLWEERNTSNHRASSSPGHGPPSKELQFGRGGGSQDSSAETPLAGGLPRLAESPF

Molecule	positive area of Masson's trichrome staining in the lung tissue (degree of fibrosis) [1]	In vitro Activity Compared to Native Peptide (%) vs. GLP-1 (human GLP-1 receptor) [%]	In vitro Activity Compared to Native Peptide (%) vs. Glucagon (human GCG receptor) [%]	In vitro Activity Compared to Native Peptide (%) vs. GIP (human GIP receptor) [%]
Nc1c(Br)cc(Br)cc1CN[C@H]1CC[C@H](O)CC1 [ambroxol, reference compound]	same level of efficacy as the long-acting conjugate of the triple agonist	–	–	–
H[Aib]QGTFTSDYSKYLDEKRAQEFVCWLLAQKGKKNDWKHNIT [triple agonist of SEQ ID NO: 28]	–	17.2	1.6	< 0.1
[Acetyl(2-(4-imidazolyl))]GQGTFTSDLSIQYEEEAQQDFVEWLKDTGPSSGAPPPSHG [triple agonist of SEQ ID NO: 20]	–	< 0.1	< 0.1	< 0.1
H[Aib]QGTFTSDYSKYLDEKACKEFVQWLLAQ (bridge 16-20) [triple agonist of SEQ ID NO: 31]	–	135	2.2	2.4
H[Aib]QGTFTSDYSKYLDERACQDFVQWLLDQGGPSSGAPPPS [triple agonist of SEQ ID NO: 27]	–	83.1	0.8	0.9
Y[Aib]QGTFTSDYSKYLDECRAKEFVQWLLAQKGKKNDWKHNIT (bridge 16-20) [triple agonist of SEQ ID NO: 23]	–	4.01	9.3	< 0.1
[Acetyl(2-(4-imidazolyl))]GQGTFTSDLSKQMDSEAQQLFIEWLKNGGPSSGAPPPSHG [triple agonist of SEQ ID NO: 16]	–	2.1	< 0.1	< 0.1
[Acetyl(2-(4-imidazolyl))]GQGTFTSDLSIQYDSEHQRDFIEWLKDTGPSSGAPPPSHG [triple agonist of SEQ ID NO: 19]	–	< 0.1	< 0.1	< 0.1
[Acetyl(2-(4-imidazolyl))]GQGTFTSDLSKQMDEERAREFIEWLLAQKPSSGAPPPSHG [triple agonist of SEQ ID NO: 17]	–	0.2	< 0.1	< 0.1
H[Aib]QGTFTSDYSKYLDEKACKDFVQWLLDGGPSSGAPPPS (bridge 16-20; also: ring type not given here) [triple agonist of SEQ ID NO: 32]	–	151	1.7	8.8
H[Aib]QGTFTSDVSSYLLGQAAKQFIAWLVKGGGPSSGAPPPSC [triple agonist of SEQ ID NO: 3]	–	1.8	< 0.1	< 0.1
H[Aib]QGTFTSDCSKYLDERAAQDFVQWLLDGGPSSGAPPPS [triple agonist of SEQ ID NO: 25]	–	82.6	0.1	< 0.1
Y[Aib]QGTFTSDYSKYLDECRAKEFVQWLLDHHPSSGQPPPS (bridge 16-20) [triple agonist of SEQ ID NO: 21]	–	17.8	267	22.7
[Acetyl(2-(4-imidazolyl))]GQGTFTSDLSKQMDSERAREFIEWLKNTGPSSGAPPPSHG [triple agonist of SEQ ID NO: 18]	–	< 0.1	< 0.1	< 0.1
H[Aib]QGTFTSDCSKYLDSRAAQDFVQWLLDGGPSSGAPPPS [triple agonist of SEQ ID NO: 26]	–	64.5	0.2	< 0.1
H[Aib]QGTFTSDYSKYLDEKAQKEFVQWLLDTC (bridge 16-20) [triple agonist of SEQ ID NO: 30]	–	142	0.7	0.8
Y[Aib]QGTFTSDYSKCLDEKRAKEFVQWLLDHHPSSGQPPPS (bridge 16-20) [triple agonist of SEQ ID NO: 22]	–	20.1	140	59.7
H[Aib]QGTFTSDYSKYLDEKAAKEFVQWLLNTC (bridge 16-20) [triple agonist of SEQ ID NO: 29]	–	38.5	6	< 0.1
H[Aib]QGTFTSDYSIAMDEIHQKDFVNWLLAQKC (bridge 16-20; also: ring type not given here) [triple agonist of SEQ ID NO: 33]	–	24.5	< 0.1	10.4
Y[Aib]QGTFTSDYSKYLDECRAKEFVQWLKNGGPSSGAPPPS (bridge 16-20) [triple agonist of SEQ ID NO: 24]	–	41.2	9.3	< 0.1
